“Also recorded” adds a separate entry of the source.

For one experiment, the system named is human PAR2. As to the kind of experiment: Fura-2 calcium imaging in HeLa cells transfected with PAR2 cDNA. Format: cell-based. As for the experimental part: (§1) Human PAR2 cDNA was cloned as an Xho I-Hind III fragment (1206 bp) into pcDNA3.1(−). 10 µg of DNA were diluted into 0.5 ml of DMEM and mixed with 0.5 ml of DMEM containing 10 µl of Lipofectamine 2000 transfection reagent and incubated at room temperature for 20 minutes. HeLa cells were grown to confluence, trypsinized and 1×10^6 cells were pelleted in a 15 ml tube by centrifugation at 1000 rpm for 5 minutes. The DMEM-Lipofectamine 2000-DNA mixture (1 ml) was added to the cell pellet, resuspended gently and incubated at room temperature for 20 minutes. Four ml of complete DMEM with 10% FBS were added to the tube, mixed by inverting the tube several times, plated into a 96-well glass bottom plate at 20,000 cells/well, and placed in a 37°C CO2 incubator. HeLa cells transfected with vector alone or salmon sperm DNA (shown in the figures) were plated as a control. The medium was aspirated two days after transfection. Fura-2 was used as a ratiometric calcium-sensitive indicator as follows. 100 µl of complete DMEM containing 2 µM of Fura-2 were added to each well and left at room temperature in the dark for 1 hr. Following loading with Fura-2, the medium was aspirated and replaced with 90 µl of HEPES-buffered saline (20 mM HEPES, 115 mM NaCl, 5.4 mM KCl, 2 mM CaCl2, 0.8 mM MgCl2, 13.8 mM glucose, pH 7.4).
Imaging was performed using a Zeiss Axiovert 200 M microscope platform equipped with a flipping filter wheel for ratiometric imaging. Axiovision software, version 4.6 was used for image analysis of the cells which were excited at 340 nm and 380 nm. Ten µl of peptide agonist were added at 20 seconds after the start of the excitation procedure. Images were taken every 5 seconds, including at zero time, during a 3-minute period or longer if required. The software later analyzed all images taken during each excitation period. Typically, ratiometric changes were measured in 10–20 cells in each image. An average of the fluorescence of the cells in each image was calculated and plotted against time in seconds.
HeLa cells transfected with PAR2 cDNA were subjected to ratiometric imaging as described above with PAR2 peptides, SLIGRL, KVDGTS, and SLIGKVDGTS in addition to the reverse peptides LRGILS and STGDVK at concentrations from 1 nM - 1 mM. Each of the concentration-dependent readings was performed in triplicate. Maximum intensities at each of the dilutions were calculated and plotted against concentration using GraphPad/PRISM software version 6.0 (Irvine, CA). Error bars represent +/−SEM.

The subject of experiment [1] is PKC (βII Ser660) phosphorylation in PAR2-transfected HeLa cells. In words: Western blot for p-PKC (Ser660) in PAR2-transfected HeLa cells. The experiment is classed as cell-based, human. Particulars: 10 minutes, room temperature; SLIGRL 10 µM, SLIGKVDGTS 10 µM, KVDGTS 100 µM, cathepsin S 1 µM. How it is done: HeLa cells were transfected with PAR2 plasmid DNA as described above. Untransfected HeLa cells were plated as a control. Forty-eight hours after transfection, cells were rinsed with PBS three times. Transfected HeLa cells were incubated with either SLIGRL (10 µM), SLIGKVDGTS (10 µM), KVDGTS (100 µM), or cathepsin S (1 µM) at room temperature for 10 minutes. Untransfected HeLa cells were treated with SLIGRL (10 µM) in a similar manner. A subset of transfected HeLa cells remained untreated and served as a negative control. After incubation, cells were harvested, pelleted and lysed by sequential freeze-thaw cycles. Cell lysates were centrifuged at 4°C for 15 minutes. Supernatants were collected and protein concentrations were determined by Bradford assay. Equal amounts of cell lysates were loaded onto NuPAGE Novex Bis-Tris mini gels, electrophoresed and transferred to nitrocellulose membranes using standard protocols. The blot was first probed with rabbit anti-phospho-PKC (βII Ser660) antibody (Cell Signalling Technology, Danvers, MA), and later reprobed with a mouse anti-actin antibody to identify the control actin band at 42 kDa. Primary antibodies were labeled with HRP-conjugated donkey anti-rabbit antibody and HRP-conjugated donkey anti-mouse antibody, respectively, followed by detection of the position of the antigen on the blot.

Experiment [2] deals with luciferase-PAR2 and PAR2 mutants. In words: Western blot for Gaussia luciferase in supernatants. The experiment is classed as cell-based, human. Particulars: luciferase-PAR2, PAR2M1, PAR2M2, PAR2M3; cathepsin S 2 µM. How it is done: HeLa cells were transfected and treated with cathepsin S as described for the luciferase assay. After treatment with cathepsin S, cells were pelleted at 14,000 rpm for 3 minutes. Supernatants (100 µl) were collected and denatured with 1 µl of 10% SDS. Equal volumes of supernatants were prepared in loading buffer, heated at 90°C for 5 minutes, run on NuPAGE Novex Bis-Tris mini gels and transferred to nitrocellulose membranes using standard protocols. The blot was probed with a primary rabbit anti-Gaussia luciferase antibody. HRP-conjugated donkey anti-rabbit antibody was used to identify the relevant bands on the membrane.
In general terms: In western blotting, separated proteins are transferred to a membrane and probed.

Experiment [3] relates to PAR2M2 (glycine40 to alanine). As to the kind of experiment: Calcium imaging in HeLa cells transfected with PAR2M2. Format: cell-based, human. As to conditions: cathepsin S 2 µM, KVDGTS 100 µM. As for the experimental part:
as §1, with “100 µl of complete DMEM containing 2 µM of Fura-2 were added to each well and left at room temperature in the dark for 1 hr. Following loading with Fura-2, the medium was aspirated and replaced with 90 µl of HEPES-buffered saline (20 mM HEPES, 115 mM NaCl, 5.4 mM KCl, 2 mM CaCl2, 0.8 mM MgCl2, 13.8 mM glucose, pH 7.4).” left out
Imaging was performed using a Zeiss Axiovert 200 M microscope platform equipped with a flipping filter wheel for ratiometric imaging. […] The software later analyzed all images taken during each excitation period. Typically, ratiometric changes were measured in 10–20 cells in each image. An average of the fluorescence of the cells in each image was calculated and plotted against time in seconds. […]

B1: cathepsin S: Recombinant human cathepsin S, cysteine protease, expressed in E.coli, refolded and activated (protein, UniProt P25774 115-331, looked up)
Cathepsin S: LPDSVDWREKGCVTEVKYQGSCGACWAFSAVGALEAQLKLKTGKLVSLSAQNLVDCSTEKYGNKGCNGGFMTTAFQYIIDNKGIDSDASYPYKAMDQKCQYDSKYRAATCSKYTELPYGREDVLKEAVANKGPVSVGVDARHPSFFLYRSGVYYEPSCTQNVNHGVLVVGYGDLNGKEYWLVKNSWGHNFGEEGYIRMARNKGNHCGIASFPSYPEI
Take B1: in the experiment on human PAR2 (PAR2-transfected HeLa, KVDGTS 100 µM, cathepsin S 2 µM, papain 2 µM, trypsin 10 nM, second agent after up to 60 minutes, room temperature), the “effect as first agent on calcium response to second agent (in words)” value is reported as “failed to induce a calcium response at any time up to 60 minutes”. Also, the “calcium response to the substance as second agent after KVDGTS (in words)” value in the experiment with human PAR2 (PAR2-transfected HeLa, second agent after 2, 3, 5, 10, 30 and 60 minutes (cathepsin S), papain 2 µM, trypsin 10 nM, room temperature) is on record as “present but reduced”. The “calcium response (in words)” value in the experiment on human PAR2 (single-cell imaging, KVDGTS 100 µM, SLIGRL 10 µM, IGKVDG 100 µM, cathepsin S 2 µM, room temperature) is “able to stimulate native PAR2 and PAR2M1”. For the same molecule, the “concentration at which active/effective” value with human PAR2 (summary of these studies (discussion)) fell in the range of 1 to 2 µM. For the same molecule, the “PKC Ser660 phosphorylation (in words)” value in experiment [1] is given as “induce PKC Ser660 phosphorylation”. In experiment [2], the “receptor cleavage, anti-luciferase western blot (in words)” value is recorded as “confirmed the results of the luminescence assay”. Besides, in experiment [3], the “calcium response on PAR2M2 (in words)” value was “did not induce calcium responses; also recorded: not PAR2M2 or PAR2M3”.

The record behind these values is PMC4070910, “Cathepsin S Signals via PAR2 and Generates a Novel Tethered Ligand Receptor Agonist” (PLoS ONE, 2014).
